According to PMC10942606:

Legend:
Assay in all cases: EMSA
Pcf1 WT;Pcf2;Pcf3 = biological target: T1, Pcf1 WT;Pcf2;Pcf3 (Schizosaccharomyces …, UniProt Q1MTN9;O13985;Q9Y825 1-544;1-512;1-408, ||)
T1 sequence 1: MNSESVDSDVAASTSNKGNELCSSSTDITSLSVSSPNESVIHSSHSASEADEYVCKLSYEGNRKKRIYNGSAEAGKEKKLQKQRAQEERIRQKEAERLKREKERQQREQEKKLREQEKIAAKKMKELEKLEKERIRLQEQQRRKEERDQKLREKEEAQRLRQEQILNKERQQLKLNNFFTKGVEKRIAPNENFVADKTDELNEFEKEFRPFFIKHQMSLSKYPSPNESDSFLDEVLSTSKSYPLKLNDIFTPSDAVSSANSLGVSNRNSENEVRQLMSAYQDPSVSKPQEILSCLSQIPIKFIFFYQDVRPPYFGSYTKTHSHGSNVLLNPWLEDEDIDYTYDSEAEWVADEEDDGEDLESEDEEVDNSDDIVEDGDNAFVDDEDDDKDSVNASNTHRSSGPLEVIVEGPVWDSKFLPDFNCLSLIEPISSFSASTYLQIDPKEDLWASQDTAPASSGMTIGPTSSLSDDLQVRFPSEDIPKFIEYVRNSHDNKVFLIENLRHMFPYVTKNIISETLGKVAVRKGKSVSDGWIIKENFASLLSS
T1 sequence 2: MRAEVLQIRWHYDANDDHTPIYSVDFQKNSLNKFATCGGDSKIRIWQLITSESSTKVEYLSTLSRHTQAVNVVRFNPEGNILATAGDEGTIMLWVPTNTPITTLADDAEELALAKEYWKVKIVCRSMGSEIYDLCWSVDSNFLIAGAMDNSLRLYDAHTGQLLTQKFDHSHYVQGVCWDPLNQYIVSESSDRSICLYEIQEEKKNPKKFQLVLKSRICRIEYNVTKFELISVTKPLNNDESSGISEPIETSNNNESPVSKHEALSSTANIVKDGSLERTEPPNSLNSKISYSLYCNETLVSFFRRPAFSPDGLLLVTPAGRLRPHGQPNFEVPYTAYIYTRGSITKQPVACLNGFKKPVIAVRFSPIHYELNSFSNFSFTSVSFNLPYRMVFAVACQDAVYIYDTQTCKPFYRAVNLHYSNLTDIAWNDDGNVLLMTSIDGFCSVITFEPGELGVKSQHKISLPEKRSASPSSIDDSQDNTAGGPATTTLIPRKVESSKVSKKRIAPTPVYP
T1 sequence 3: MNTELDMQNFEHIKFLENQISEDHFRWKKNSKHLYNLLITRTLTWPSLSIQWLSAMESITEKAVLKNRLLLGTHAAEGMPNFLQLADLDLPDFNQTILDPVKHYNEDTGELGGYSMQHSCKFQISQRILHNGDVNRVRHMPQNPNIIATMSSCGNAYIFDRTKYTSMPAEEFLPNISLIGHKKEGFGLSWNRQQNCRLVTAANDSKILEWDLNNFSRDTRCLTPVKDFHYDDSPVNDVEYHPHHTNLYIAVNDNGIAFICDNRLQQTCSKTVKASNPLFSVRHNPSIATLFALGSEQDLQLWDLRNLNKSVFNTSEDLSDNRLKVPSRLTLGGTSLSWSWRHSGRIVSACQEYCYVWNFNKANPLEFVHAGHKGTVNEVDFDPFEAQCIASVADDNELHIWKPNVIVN

Pcf1_WHD = biological target: T2, Pcf1_WHD (Schizosaccharomyces pombe, UniProt Q1MTN9 471-544)
T2 sequence: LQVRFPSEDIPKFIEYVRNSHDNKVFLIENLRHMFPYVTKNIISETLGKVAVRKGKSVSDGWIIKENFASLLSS

[1] = biological target: Pcf1-ΔWHD;Pcf2;Pcf3;SpPCNA (Schizosaccharomyces …, UniProt Q1MTN9;O13985;Q9Y825;Q03392 1-470;1-512;1-408;1-260, del471-544|||)
Chain of Pcf1-ΔWHD;Pcf2;Pcf3;SpPCNA (Q03392 whole entry, stated change not applied, one chain of several): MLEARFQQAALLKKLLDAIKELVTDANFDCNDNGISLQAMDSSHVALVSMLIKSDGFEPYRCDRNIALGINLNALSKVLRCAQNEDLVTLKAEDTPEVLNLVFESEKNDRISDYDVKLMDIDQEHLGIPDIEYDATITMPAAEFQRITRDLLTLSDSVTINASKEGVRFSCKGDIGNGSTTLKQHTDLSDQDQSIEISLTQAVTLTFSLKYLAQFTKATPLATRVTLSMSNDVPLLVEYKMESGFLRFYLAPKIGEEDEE

Pcf1 WT;Pcf2;Pcf3;SpPCNA = Pcf1 WT;Pcf2;Pcf3;SpPCNA (Schizosaccharomyces …, UniProt Q1MTN9;O13985;Q9Y825;Q03392 1-544;1-512;1-408;1-260, |||)
Chain of Pcf1 WT;Pcf2;Pcf3;SpPCNA (Q03392 whole entry, one chain of several): as the sequence (Q03392 whole entry, stated change not applied, one chain of several) above

B1: 40 bp dsDNA (dsDNA)
DNA 1: ATCAATATCCACCTGCAGATACTACCAAAAGTGTATTTGG
DNA 2: CCAAATACACTTTTGGTAGTATCTGCAGGTGGATATTGAT
Q: For B1, which “apparent K (half saturation)” value (Pcf1 WT;Pcf2;Pcf3) is on record?
A: 3.4 ± 0.4 µM

Q: Does B1 bind (Pcf1_WHD)?
A: no binding

Q: Does B1 bind [1]?
A: binds

Q: Does B1 bind (Pcf1 WT;Pcf2;Pcf3;SpPCNA)?
A: binds
